Bridges are numbered along the chain shown (N, C = ends). Where no end group is shown, it is not given here. [ ]: non-standard residue; d: D form. NMeR = CN[C@@H](CCCNC(=N)N)C(=O)O; Pen = CC(C)(S)[C@H](N)C(=O)O
Assay: Simulated Intestinal Fluid (SIF) Stability Assay
Assay type: in vitro ADME
Details: compared to SEQ ID NO: 39 with Cys or to monomer subunits
Method: Simulated Intestinal Fluid (SIF) Stability Assay
Studies were carried out in simulated intestinal fluid (SIF) to evaluate gastric stability of the dimer molecules of the instant invention. SIF was prepared by adding 6.8 g of monobasic potassium phosphate and 10.0 g of pancreatin to 1.0 L of water. After dissolution, the pH was adjusted to 6.8 using NaOH. DMSO stocks (2 mM) were first prepared for the test compounds. Aliquots of the DMSO solutions were dosed into 6 individual tubes, each containing 0.5 mL of SIF, which had been pre-warmed to 37° C.
The final test compound concentration was 20 μM. The vials were kept in a benchtop Thermomixer® for the duration of the experiment. At each timepoint (0, 5, 10, 20, 40, and 60 minutes), 1.0 mL of acetonitrile containing 1% formic acid was added to one vial to terminate the reaction. Samples were stored at 4° C. until the end of the experiment. […] Aliquots of the supernatant were removed, diluted 1:1 into distilled water containing internal standard, and analyzed by LCMS/MS. Percent remaining at each timepoint was calculated based on the peak area response ratio of test to compound to internal standard. Time 0 was set to 100%, and all later timepoints were calculated relative to time 0. Half-lives were calculated by fitting to a first-order exponential decay equation using GraphPad. […]

SEQ ID NO: 102: homodimer of monomer subunit with Pen in place of Cys and N-Me-Arg, dimerized at C-termini (K[Pen][NMeR]SDTL[Pen]W; disulfide 2-8 (inferred); also: homodimer dimerized at C-termini)
stability in simulated intestinal fluids (SIF) (in words): increased stability significantly

— patent US9273093B2, “α4β7 peptide dimer antagonists” (Protagonist Therapeutics, Inc., priority 2012, dated 2016)
